Source: patent US20180057593A1 (published 2018)
Changes are numbered by the printed parent chain. Like-named read-outs stand apart in the source and are kept apart here. Blank lines part the entries; values can stand above or below the binder they belong to.

Experiments:
[1] = molecular target: T1, single chain CD3εγ heterodimer (UniProt P07766 23-118; P09693 23-103); experiment: Biacore
T1 chain: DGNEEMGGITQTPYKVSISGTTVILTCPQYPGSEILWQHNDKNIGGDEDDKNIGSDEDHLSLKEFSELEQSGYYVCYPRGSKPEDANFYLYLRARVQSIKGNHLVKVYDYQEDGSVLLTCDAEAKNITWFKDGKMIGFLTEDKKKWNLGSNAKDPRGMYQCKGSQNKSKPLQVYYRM

[2] = molecular target: T1, single chain CD3εγ heterodimer; experiment: Biacore

B1: Unmasked v4 TDB (bispecific antibody, V domains shown)
VH 1: EVQLVQSGAEVKKPGASVKVSCKASGFTFTSYYIHWVRQAPGQGLEWIGWIYPENDNTKYNEKFKDRVTITADTSTSTAYLELSSLRSEDTAVYYCARDGYSRYYFDYWGQGTLVTVSS
VL 1: DIVMTQSPDSLAVSLGERATINCKSSQSLLNSRTRKNYLAWYQQKPGQSPKLLIYWTSTRKSGVPDRFSGSGSGTDFTLTISSLQAEDVAVYYCKASFILRTFGQGTKVEIK
VH 2: EVQLVESGGGLVQPGGSLRLSCAASGYTFTSYNMHWVRQAPGKGLEWVGAIYPGNGDTSYNQKFKGRFTISVDKSKNTLYLQMNSLRAEDTAVYYCARVVYYSNSYWYFDVWGQGTLVTVSS
VL 2: DIQMTQSPSSLSASVGDRVTITCRASSSVSYMHWYQQKPGKAPKPLIYAPSNLASGVPSRFSGSGSGTDFTLTISSLQPEDFATYYCQQWSFNPPTFGQGTKVEIK
Kd [1]: 119 nM
Kd [2]: 119 nM

B4: Unmasked v5 TDB (bispecific antibody, V domains shown)
VH 1: B1 VH 1
VL 1: B1 VL 1 with A96Q, F98A
VH 2: B1 VH 2
VL 2: B1 VL 2
Kd [1]: 18 nM
Kd [2]: 18 nM

These reach a lower Kd [1]. Values come first.

Kd [1]: 3.5 nM
Kd [2]: 3.5 nM
B2: Unmasked v3 TDB (bispecific antibody, V domains shown)
VH 1: B1 VH 1
VL 1: B1 VL 1 with A96Q, I99A
VH 2: B1 VH 2
VL 2: B1 VL 2

Kd [1]: 1.2 nM
Kd [2]: 1.2 nM
B3: Unmasked v1 TDB (bispecific antibody, V domains shown)
VH 1: B1 VH 1
VL 1: B1 VL 1 with A96Q
VH 2: B1 VH 2
VL 2: B1 VL 2
